The source of these data is the supplement of paper PMC7877785.

This data set in a line: self-splicing fitness, log relative to wild type (ln ratio); higher = more splicing; Tetrahymena group I intron in knt gene, E. coli kanamycin selection, DiMSum; sequences stand for … in CUCUCU…GGAGGGAAAAGUUAUCAGGCAUGCACCUGGUAGCUAGUCUUUAAACCAAUAGAUUGCAUCGGUUUAAAAGGCAAGACCGUCAAAUUGCGGGAAAGGGGUCAACAGCCGUUCAGUACCAAGUCUCAGGGGAAACUUUGAGAUGGCCUUGCAAAGGGUAUGGUAAUAAGCUGACGGACAUGGUCCUAACCACGCAGCCAAGUCCUAAGUCAACAGAUCUUCUGUUGAUAUGGAUGCAGUUCACAGACUAAAUGUCGGUCGGGGAAGAUGUAUUCUUCUCAUAAGAUAUAGUCGGACCUCUCCUUAAUGGGAGCUAGCGGAUGAAGUGAUGCAACACUGGAGCCGCUGGGAACUAAUUUGUAUGCGAAAGUAUAUUGAUUAGUUUUGGAGUACUCGUGGUCG
In a few lines:
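Six replicate transformations of E. coli BL21(DE3) with a pET-22b(+) library were grown overnight at 37°C or 30°C. The library randomised all eight P1ex-region intron nucleotides, the intron lying in the knt kanamycin-resistance gene, and plates were LB agar with or without 25 μg/mL kanamycin plus 100 μg/mL carbenicillin, 50 μM IPTG and 0.2% rhamnose. Pooled colonies were amplicon-sequenced on an Illumina HiSeq 2500, and fitness is the DiMSum error-weighted combination of wild-type-normalised replicate fold changes, kanamycin versus none.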

± gives the uncertainty stated by the source.

For the sequence UUGUAGCAAUAUUACGUGAA, the “self-splicing fitness (ln)” value reads like this: (30 °C) -1.87 ± 0.14; (37 °C) -0.614 ± 0.14.

Regarding UUGUAGCAAUAUUACGUGUG, the “self-splicing fitness (ln)” value (30 °C) was -1.28 ± 0.17 and the “self-splicing fitness (ln)” value (37 °C) was -1.17 ± 0.11.

As to UUGUAGCAAUAUUACGUUGA, the “self-splicing fitness (ln)” value is, setting by setting: (30 °C) -2.95 ± 0.29; (37 °C) -0.294 ± 0.19.

In the case of UUGUAGCAAUAUUACGUUGC, where the note is “37 °C”, the “self-splicing fitness (ln)” value was -2.29 ± 0.46.

On to UUGUAGCAAUAUUACGUUUC, for which the “self-splicing fitness (ln)” value (30 °C) was -3.69 ± 0.46.

As for UUUAAGCAAUAUUACGAAAA, the “self-splicing fitness (ln)” value was -0.789 ± 0.19 (30 °C) and -1.33 ± 0.2 (37 °C).

In the case of UUUAAGCAAUAUUACGACUA, the “self-splicing fitness (ln)” value is 0.0508 ± 0.11 (30 °C) and -0.0992 ± 0.096 (37 °C).

Turning to UUUAAGCAAUAUUACGAGAA, the “self-splicing fitness (ln)” value by setting is: (30 °C) -1.62 ± 0.33; (37 °C) -0.298 ± 0.28.

Take UUUAAGCAAUAUUACGAGAC: the “self-splicing fitness (ln)” value reads like this: (30 °C) -2.33 ± 0.48; (37 °C) -2.63 ± 0.33.

For UUUAAGCAAUAUUACGAGGA, the “self-splicing fitness (ln)” value (30 °C) was -1.85 ± 0.13 and the “self-splicing fitness (ln)” value (37 °C) is -1.22 ± 0.15.

Turning to UUUAAGCAAUAUUACGAUGG, the “self-splicing fitness (ln)” value was -1.05 ± 0.11 (30 °C) and -0.525 ± 0.14 (37 °C).

Take UUUAAGCAAUAUUACGCAGA: the “self-splicing fitness (ln)” value (30 °C) was -1.64 ± 0.16 and the “self-splicing fitness (ln)” value (37 °C) was -1.93 ± 0.14.

Take UUUAAGCAAUAUUACGCAUC: the “self-splicing fitness (ln)” value is, setting by setting: (30 °C) -2.75 ± 0.36; (37 °C) -2.25 ± 0.32.

Consider UUUAAGCAAUAUUACGCCGA, for which the “self-splicing fitness (ln)” value (30 °C) is -0.292 ± 0.13 and the “self-splicing fitness (ln)” value (37 °C) was 0.0683 ± 0.15.

With UUUAAGCAAUAUUACGCUCU, the “self-splicing fitness (ln)” value is -1.26 ± 0.098 (30 °C) and -0.539 ± 0.11 (37 °C).

On to UUUAAGCAAUAUUACGGCAA, for which the “self-splicing fitness (ln)” value is -0.171 ± 0.093 (30 °C) and 0.00377 ± 0.11 (37 °C).

Consider UUUAAGCAAUAUUACGGCGA, for which the “self-splicing fitness (ln)” value is 0.000504 ± 0.075 (30 °C) and 0.503 ± 0.1 (37 °C).

On to UUUAAGCAAUAUUACGGCUA, for which the “self-splicing fitness (ln)” value was -0.342 ± 0.084 (30 °C) and 0.291 ± 0.1 (37 °C).

UUUAAGCAAUAUUACGGUCU: the “self-splicing fitness (ln)” value is, setting by setting: (30 °C) -2.5 ± 0.14; (37 °C) -1.66 ± 0.15.

For the sequence UUUAAGCAAUAUUACGUCAA, the “self-splicing fitness (ln)” value by setting is: (30 °C) -1.43 ± 0.16; (37 °C) -0.273 ± 0.14.

Consider UUUAAGCAAUAUUACGUCCA, for which the “self-splicing fitness (ln)” value runs as follows: (30 °C) -1.08 ± 0.22; (37 °C) -0.324 ± 0.27.

Take UUUAAGCAAUAUUACGUGCA: the “self-splicing fitness (ln)” value reads like this: (30 °C) -1.06 ± 0.12; (37 °C) -0.0552 ± 0.15.

In the case of UUUAAGCAAUAUUACGUUAA, the “self-splicing fitness (ln)” value was -1.68 ± 0.23 (30 °C) and -1.38 ± 0.18 (37 °C).

In the case of UUUAAGCAAUAUUACGUUCA, the “self-splicing fitness (ln)” value runs as follows: (30 °C) -1.08 ± 0.11; (37 °C) -0.403 ± 0.12.

On to UUUCAGCAAUAUUACGAACA, for which the “self-splicing fitness (ln)” value was -0.771 ± 0.13 (30 °C) and 0.793 ± 0.22 (37 °C).

For the sequence UUUCAGCAAUAUUACGAACU, the “self-splicing fitness (ln)” value by setting is: (30 °C) -1.23 ± 0.092; (37 °C) 0.244 ± 0.1.

In the case of UUUCAGCAAUAUUACGAAGA, the “self-splicing fitness (ln)” value is -0.653 ± 0.24 (30 °C) and -0.0649 ± 0.25 (37 °C).

In the case of UUUCAGCAAUAUUACGAAGG, the “self-splicing fitness (ln)” value reads like this: (30 °C) -2.18 ± 0.15; (37 °C) -2.34 ± 0.28.

In the case of UUUCAGCAAUAUUACGAAUG, the “self-splicing fitness (ln)” value (30 °C) is -0.511 ± 0.086 and the “self-splicing fitness (ln)” value (37 °C) was -0.0774 ± 0.12.

UUUCAGCAAUAUUACGAGAU: the “self-splicing fitness (ln)” value (37 °C) was -2.72 ± 0.48.

As to UUUCAGCAAUAUUACGAUAC, the “self-splicing fitness (ln)” value is, setting by setting: (30 °C) -2.17 ± 0.25; (37 °C) -2.02 ± 0.26.

Regarding UUUCAGCAAUAUUACGAUAG, the “self-splicing fitness (ln)” value was -0.323 ± 0.088 (30 °C) and -0.323 ± 0.11 (37 °C).

As to UUUCAGCAAUAUUACGAUCC, the “self-splicing fitness (ln)” value (37 °C) was -0.887 ± 0.39.

UUUCAGCAAUAUUACGAUGC: the “self-splicing fitness (ln)” value by setting is: (30 °C) -3.68 ± 0.28; (37 °C) -2.01 ± 0.29.

UUUCAGCAAUAUUACGCCAA: the “self-splicing fitness (ln)” value was -0.879 ± 0.18 (30 °C) and -0.379 ± 0.18 (37 °C).

Consider UUUCAGCAAUAUUACGCGCA, for which the “self-splicing fitness (ln)” value reads like this: (30 °C) -0.226 ± 0.11; (37 °C) 0.569 ± 0.12.

For UUUCAGCAAUAUUACGCUAC, the “self-splicing fitness (ln)” value was -2.95 ± 0.22 (30 °C) and -2.39 ± 0.34 (37 °C).

As to UUUCAGCAAUAUUACGGACG, the “self-splicing fitness (ln)” value is -0.348 ± 0.18 (30 °C) and 0.598 ± 0.23 (37 °C).

As for UUUCAGCAAUAUUACGGAGC, the “self-splicing fitness (ln)” value is, setting by setting: (30 °C) -3.25 ± 0.36; (37 °C) -3.28 ± 0.43.

Consider UUUCAGCAAUAUUACGGCAG, for which the “self-splicing fitness (ln)” value (30 °C) is -0.779 ± 0.17 and the “self-splicing fitness (ln)” value (37 °C) was found to be 0.0981 ± 0.19.

As for UUUCAGCAAUAUUACGGCGG, the “self-splicing fitness (ln)” value is -1.72 ± 0.15 (30 °C) and -0.833 ± 0.18 (37 °C).

With UUUCAGCAAUAUUACGGCGU, the “self-splicing fitness (ln)” value is -2.37 ± 0.14 (30 °C) and -0.454 ± 0.14 (37 °C).

With UUUCAGCAAUAUUACGGGAU, the “self-splicing fitness (ln)” value was -2.73 ± 0.12 (30 °C) and -1.64 ± 0.13 (37 °C).

Regarding UUUCAGCAAUAUUACGUAAG, the “self-splicing fitness (ln)” value by setting is: (30 °C) -0.33 ± 0.087; (37 °C) 0.394 ± 0.13.

Turning to UUUCAGCAAUAUUACGUCAA, the “self-splicing fitness (ln)” value was -1.19 ± 0.1 (30 °C) and -0.056 ± 0.097 (37 °C).

In the case of UUUCAGCAAUAUUACGUCAC, the “self-splicing fitness (ln)” value is -3.13 ± 0.43 (30 °C) and -2.86 ± 0.35 (37 °C).

For the sequence UUUCAGCAAUAUUACGUGUC, the “self-splicing fitness (ln)” value (30 °C) is -3.73 ± 0.18 and the “self-splicing fitness (ln)” value (37 °C) is -2.04 ± 0.15.

Take UUUCAGCAAUAUUACGUUUA: the “self-splicing fitness (ln)” value by setting is: (30 °C) -1.34 ± 0.11; (37 °C) -0.334 ± 0.13.

Consider UUUGAGCAAUAUUACGAAUU, for which the “self-splicing fitness (ln)” value is -2.47 ± 0.23 (30 °C) and -2.01 ± 0.3 (37 °C).

As to UUUGAGCAAUAUUACGACUC, the “self-splicing fitness (ln)” value was -2.58 ± 0.44 (30 °C) and -2.37 ± 0.41 (37 °C).

As for UUUGAGCAAUAUUACGAGGA, the “self-splicing fitness (ln)” value by setting is: (30 °C) -3.62 ± 0.28; (37 °C) -3.55 ± 0.46.

Regarding UUUGAGCAAUAUUACGAUGU, the “self-splicing fitness (ln)” value runs as follows: (30 °C) -3.05 ± 0.3; (37 °C) -2.34 ± 0.39.

Consider UUUGAGCAAUAUUACGCCGG, for which the “self-splicing fitness (ln)” value reads like this: (30 °C) -2.04 ± 0.35; (37 °C) 0.228 ± 0.38.

Turning to UUUGAGCAAUAUUACGCCUG, the “self-splicing fitness (ln)” value by setting is: (30 °C) -2.85 ± 0.27; (37 °C) -1.21 ± 0.38.

For UUUGAGCAAUAUUACGCUAA, the “self-splicing fitness (ln)” value (30 °C) was -1.08 ± 0.41.

For UUUGAGCAAUAUUACGCUUC, the “self-splicing fitness (ln)” value is, setting by setting: (30 °C) -2.18 ± 0.31; (37 °C) -2.53 ± 0.44.

Regarding UUUGAGCAAUAUUACGCUUU, the “self-splicing fitness (ln)” value (37 °C) is -1.59 ± 0.22.

On to UUUGAGCAAUAUUACGGCAG, for which the “self-splicing fitness (ln)” value was -1.6 ± 0.17 (30 °C) and -1.56 ± 0.21 (37 °C).

Turning to UUUGAGCAAUAUUACGGGAG, the “self-splicing fitness (ln)” value is -3.55 ± 0.28 (30 °C) and -1.99 ± 0.19 (37 °C).

UUUGAGCAAUAUUACGGUGC: the “self-splicing fitness (ln)” value was -2.74 ± 0.47 (30 °C) and -2.2 ± 0.33 (37 °C).

As to UUUGAGCAAUAUUACGUGAA, the “self-splicing fitness (ln)” value is -1.97 ± 0.17 (30 °C) and -1.82 ± 0.17 (37 °C).

In the case of UUUGAGCAAUAUUACGUUCU, the “self-splicing fitness (ln)” value reads like this: (30 °C) -3.55 ± 0.32; (37 °C) -2.58 ± 0.25.
